Protein production data for 21 sequences are collected here from a protein production outcome set (Wang et al. 2014).

This data set is described as follows: label from the status in PepcDB records.
Take “MGKIMEWAARSDHLGGIPRNTVIMAVSAFAKAVANLCNKSSVHNADTLMNLVQSRPPGVPLITVSNHMSTLDDPVMWGAFKGLLSLDPELARWVLAAEDICFRNPIFSYIFRTGKCIPITRGGGIYQENMNEALQRLKDGSWLHTFPEGKVFQDDVPIRRLKWGTASLIARSPVTPIVLPIIHRGFEEMMPENYNNGRRPLVPLPNKHLKVVVGEPIEFDVPMMVETAVLDSRHVTPPLQEVKWPVLTSAGQVLDETAQRHLYIALSEKIQSSLETLRLLAKRL”: the protein production result was “failed”. For “MKKMLPESKVESIRKEGFLNRAVEAYRFFYPTVSNVSNFKALHDLGITENHDFIIQLTTPDLNVLTQNSDTPYCLGTGNTENGPVVIELPLGAIVGVADDINFKFITNMGLTGDEEGKGAKYLYLPPNYDGDIPEGYIVRKPSSFRFLICLRAMVHQASDYEKAFELLKTVKFYPLKEAKNNPTSTFHDFSHRKAISTPYYVEGKFDYWEVIKWALDNDETDPEYYQMYGLLKAIGLAPNKEFNPDSDTKALLIEAAEKADKMMFVNSFNTDDPAAIVWPGKNWEWAVYGENNDFYEKTYLNLPVRERWFYQATLETHMMFMHKVGFGSVYMLGVKDKEGNYLDGGKSYTLKVPTPVPTSIFWSVTVYEMDTRSEIVTEQFMPALNSIKDTFEADADGNTTLYFGPNPPEDESLPWIQTVPDANWFTYFRIYGPTEPAFDNSWQLYDFEEVK”, the protein production result is given as “failed”. For “MSSKEEILSILEAFASTERMGSFFLDNATADFLFIRPSGNPLDAKGFENMWSSGDLVLESAEITKVHKFELLGSNAAICVFTLGSKFTYKGTQNDDLPTVTSIFKKIDEKWKVAWMQRSSGQSDMTLWNE”, the protein production entry is on record as “not failed”. Then “MSETERTLVIIKPDAVVRGLIGEIISRFEKKGLKIVGMKMIWIDRELAEKHYEEHREKPFFKALIDYITKTPVVVMVLEGRYAVEVVRKMAGATDPKDAAPGTIRGDFGLEVSDAICNVIHASDSKESAEREISLFFKPEELFEYPRAADWFYKKGI”, with “not failed”. Take “METWITSIMADFGYIGIFLLIMIENLFPPIPSEIILTFGGFMTTVSSLNVVMVIIVATLGSVVGAILLYKVASYFGKERLTHIVLKYGRVLRLKESDIERAESFFLKYGSWAVFLCRMIPLIRSLISIPAGMTKMKMSRFLILTTAGSLLWNTVLIGLGALLGESWGEIVVFMDSFSTVIYSIIAVITLLGLGFFFRARFKKTLDEE”: the protein production result is recorded as “failed”. “MAAQALLSVGERRLLRGVDEQRALGAALARALAPGSVLFLEGELGAGKTTLTQGLLAALGFDGHVTSPTYALMQLYPASAGQVLHVDAYRVRDVAELYEMDLDELIAGSRLSVIEWGEGLYADYPQAPIYLFEHVEGDPETRRVTRRRLEHHHHHH”: the protein production result is “failed”. Regarding “MKVSVIIPTYNERENLEELFSRIDNALQGLNYEIVVVDDDSPDRTWEKAQELSSKYPVKVIRRTKEKGLSSAVIRGFKEASGDVFVVMDADLQHPPEVIPKLIEAIKNGSDIAIGSRYVKGGKVENWPFYRKLISKGAIMVGRIALPKIRDIKDPVSGFFALRKEVVEGVELNPIGFKILMEILIKGKYSKVVEVPFTFGIRARGESKLKGKTIFEYLRHIYRLMKWEGEIDRIVKFSIVGLSGILVNEGFLWLFVNLGIPKEIAVIPAVELSILNNFFWNDIWTFKDIRRGSIFSRLLKFHIAALSGAVVNFIVYWILLFLGIHYLIANLVGIVLSFGVRYVINRHVTWAT”, the protein production result was “failed”. Then “MRVEDVMVTDVDTIDITASLEDVLRNYVENAKGSSVVVKEGVRVGIVTTWDVLEAIAEGDDLAEVKVWEVMERDLVTISPRATIKEAAEKMVKNVVWRLLVEEDDEIIGVISATDILRAKMAKRY”, with “not failed”.

Consider “MGMAAESQFHVLAVDDSLFDRKLIERLLQKSSCQVTTVDSGSKALEFLGLRQSTDSNDPNAFSKAPVNHQVVEVNLIITDYCMPGMTGYDLLKKVKESSAFRDIPVVIMSSENVPARISRCLEEGAEEFFLKPVRLADLNKLKPHMMKTKLKNQKLEEIETTSKVENGVPTAVADPEIKDSTNIEIEILPLQQDLLLVQQEEQTLSINNKRKSVEEGISTDRARPRFDGIATAV”, for which the protein production result is “failed”. Consider “MAQKVEAGGGAGGASWDDGVHDGVRKVHVGQGQDGVSSINVVYAKDSQDVEGGEHGKKTLLGFETFEVDADDYIVAVQVTYDNVFGQDSDIITSITFNTFKGKTSPPYGLETQKKFVLKDKNGGKLVGFHGRAGEALYALGAYFATTTTPVTPAKKLSAIGGDEGTAWDDGAYDGVKKVYVGQGQDGISAVKFEYNKGAENIVGGEHGKPTLLGFEEFEIDYPSEYITAVEGTYDKIFGSDGLIITMLRFKTNKQTSAPFGLEAGTAFELKEEGHKIVGFHGKASELLHQFGVHVMPLTN”, for which the protein production result is on record as “failed”. As to “MKIADGVYVHFIPTQKYKTNRIVFRMTGSLNKQTIAKRALVSQMLATANQTYPTVQSFKERLASLYGTQLSTKVSTKGLTHSVDIELTYLKDFFIPMNTSLFWEVLGFLMDCLYNPLSIVAQYQNKVFDIEKQNLMTYLDVDTENNYYYSEVQGRELYFVNEALKVPKYGRVELVEAETSFTAYQEFQSMLTKDRIDIFMVGEFDDYQVLRGLHRFPLEGRQVDLQFSYNQSYSKVVKEKIETRQTSQSILQLGYQFPCQYGDKDYFALIVFNGMLGEFAHSALFTKIREKEGLAYSIGSQFDAFTGLLEIYAGIEKSNRNQAMRGIIRELNHIKLGRFSSSLFNQTKKIIRMNALLSEDHALTLVEQHFNKVIFGDKKISLEDWLDKIEKVTKKDVCRIARQVKLQSLFFLEGVS”, the protein production entry was “failed”. Turning to “RSIRLPETIDLGALYLSMKDTEKGIKELNLEKDKKIFNHCFTGNCVIDWLVSNQSVRNRQEGLMIASSLLNEGYLQPAGDMSKSAVDGTAENPFLDNPDAFYYFPDSGFFCEEN”, the protein production entry is on record as “not failed”. Turning to “SDIGQVIHPDDFDKAAADDYVLHEDGEKIYFLIKSKTDEYCFTNLALVHLDGESAVSSKRVLYRYPYAHYPIRHVMFETAGTVDLDVEIKFEIGGKHYSIDVDKKQLEHVKDLYKALLAIAEKQYEGQKMLEFANSSLNHSVTILGGLRQGDMNVPQTFKDLSQESFDWLQGHYYKWNQKDFGSFYEKYINN”, the protein production entry was “not failed”. On to “MEEELPLFSGDSGKPVQATLSSLKMLDVGKWPIFSLCSEEELQLIRQACVFGSAGNEVLYTTVNDEIFVLGTNCCGCLGLGDVQSTIEPRRLDSLNGKKIACLSYGSGPHIVLATTEGEVFTWGHNAYSQLGNGTTNHGLVPCHISTNLSNKQVIEVACGSYHSLVLTSDGEVFAWGYNNSGQVGSGSTVNQPIPRRVTGCLQNKVVVTIACGQMCCMAVVDTGEVYVWGYNGNGQLGLGNSGNQPTPCRVAALQGIRVQRVACGYAHTLVLTDEGQVYAWGANSYGQLGTGNKSNQSYPTPVTVEKDRIIEIAACHSTHTSAAKTQGGHVYMWGQCRGQSVILPHLTHFSCTDDVFACFATPAVTWRLLSVEPDDHLTVAESLKREFDNPDTADLKFLVDGKYIYAHKVLLKIRCEHFRSSLEDNEDDIVEMSEFSYPVYRAFLEYLYTDSISLSPEEAVGLLDLATFYRENRLKKLCQQTIKQGICEENAIALLSAAVKYDAQDLEEFCFRFCINHLTVVTQTSGFAEMDHDLLKNFISKASRVGAFKN”, for which the protein production result was “failed”.

Regarding “MLLTLEQELFTQFGYAAFKPGQKEVITNLLDGMNTLAVLPTGTGKSLCYQFVGQKLEGLTVIVSPLLSLMEDQMRQLQRQGIKGAVALNSTLQYSEKRYILAKMFQYDYLFLSPEMLLQQEVLSVLQRQKIALFVVDEAHCVYQWGVDFRPEYSKLDLVQKQLDFPLTLALTATATPVVQHAIIKQLFSHGSYQEVLSSVNRKNIGLFVKETSEKEEVLLDYLSKTAGKIIIYCATRNKTEQISQLIQAKTSFKVAYYHGGLEASERSRLQEQFIDNQIDILCATNAFGMGIDKPDVRGVIHFDLPDSLENYLQEIGRAGRDGQKSWALLLYKKGDEFIHRFFLEETRANRATLKSLIEGEEQAGLLENATELQQKWVQGYLAKDYSFEELEHRLEEKEKDRQAQLRGMLTYIETTTCRRTLIQTYFQEPIVKQSPETCCDNCALFFDIYQDSIVKSNKTSNQNEEGWRSKFLKLFKERD”, the protein production entry was “failed”.

“MSTPTAADRAKALERKNEGNVFVKEKHFLKAIEKYTEAIDLDSTQSIYFSNRAFAHFKVDNFQSALNDCDEAIKLDPKNIKAYHRRALSCMALLEFKKARKDLNVLLKAKPNDPAATKALLTCDRFIREERFRKAIGGAENEAKISLCQTLNLSSFDANADLANYEGPKLEFEQLYDDKNAFKGAKIKNMSQEFISKMVNDLFLKGKYLPKKYVAAIISHADTLFRQEPSMVELENNSTPDVKISVCGDTHGQFYDVLNLFRKFGKVGPKHTYLFNGDFVDRGSWSCEVALLFYCLKILHPNNFFLNRGNHESDNMNKIYGFEDECKYKYSQRIFNMFAQSFESLPLATLINNDYLVMHGGLPSDPSATLSDFKNIDRFAQPPRDGAFMELLWADPQEANGMGPSQRGLGHAFGPDITDRFLRNNKLRKIFRSHELRMGGVQFEQKGKLMTVFSAPNYCDSQGNLGGVIHVVPGHGILQAGRNDDQNLIIETFEAVEHPDIKPMAYSNGGFGL”: the protein production result is listed as “not failed”. Under “MTEFKVVHTICPYCGTGCGIDLVVKDGKVVDSHPFKRHPVNEGKVCIKGNYCYEFVHSEDRLTKPLIKKNGEFIEATWDEALDLIAGKLKQYSPEEVAFFSCARGTNEESYALQKFARTVMKTNNVDHCARI” stands “failed”; under “MAESKRDYYEVLGVSKDADDAAIKKAYRALAKKYHPDMNPGDAEAEKKFKEASEAYAVLSDAEKRRQYDQFGHAAFEGGAGGAGGFGGFDFNGADFGDIFGDIFGDLFGGGGRRGGRANNGPMKGANIRKSIRITFEEAVFGCKKELEVILKDPCTTCGGTGAKPGTSPETCPKCGGKGQVVYTSQSFFGTVQNVQTCPNCGGSGKVIKEKCTSCSGTGYTSSKKKIEVTIPAGIDNGQSVRIREKGEPGTNGGPRGDLLVEVNVSRHPIFQRQDMHIFSTVPISFAQAALGGDVKIQTVDGAVIYNVKPGTKTDTKVRLKGKGVPSLRNSAVRGDHYVTLVIQTPEKLSAEAKEALRRFDELSGNSLHQNDSNPEKSEKKTKRKGFMDKVKEAFEGED”, “failed”; under “MKQLMLYCRSGFEKECAGEIQDKATQLEVYGFPRVKKNSGYVVFECYQDGDAEKLVKGLDFSSLIFARQMFAVAAEFEALPSEDRISPILAELSEFESFPRCGDLRIETPDTNEAKELLKFCRKFTVPMRQALRGKGLMWNKDNAKKPVLHICFVAPGHCYVGYSLPGNNSQFFMGIPRLKFPADAPSRSTLKLEEAFHVFIPRDEWDERLAPGMWGVDLGACPGGWTYQLVKRSMFVHCVDNGMMADSLMETGQIKHHMVDGFKFEPDRKNVTWIVCDMVEKPARVAHLMGQWLLKGWAKEAIFNLKLPMKGRYDEVLQDLENLKMFLIENKVKFKLQAKHLYHDREEITIHIQCLSNISPH”, “failed”. Then “MVKNGQSKRQPWVKNLYSNREYPDNYTDASFLKDLRTNLHCRIYTFGEAIAGITVLNNQISCITGFLILYQLMLSDSVSPTTILVPSCGITGIGYLCYRGRSLSWALLGEDSKTLVTVVLFGYLFSPMLHTLTQAISTDTIYTMTFFVLLGNLIFGHYGLDVAMVSKVGNIYGYWSQAVSLNAAIFGAICLASRLPTSYHAFVLLVEAAVFFVLYPIMTEANWHAGFMLPIFAICCMALYCISRPVLYLYASTTIFINFVCPFIFVWQQQYKFNIHGPWDEAIVEENTEENLDGNL”, with “failed”; and “MDKIHAMQLFIRVADLESFSRAAETLALPKGSVSRQIQALESHLGVRLLHRTTRRVQLTQDGMVYYERAKDLLSNLDELDGMFQHDPASISGRLRVDMPVGFAKKMVIPHLPTFLQQYPGIELELSSSDRQVDVIREGFDCVVRVGALKDSGLIARPLGKLTQINCASPDYLARFGYPQSLEDLADHALIHYASTLGVRPPGFEVMIDGAVRWVKTGGILTVNSTETYQAACIAGLGIIQVPRTGVREALRAGDLIEILPQYRAEPLPVSLIYPHRRNLSRRVNLFMEWLGGLMKAYVD”, with “failed”.
